The results in this text go back to patent US20240376180A1 (DEUTSCHES ZENTRUM FUR NEURODEGENERATIVE ERKRANKUNGEN E V …, published 2024).

Positions count from the first letter of the chain named. Some results are limits rather than exact numbers.

The target in assay [1] is SARS-CoV-2 S protein-RBD-mFc (SARS-CoV-2, UniProt P0DTC2 319-537).
The next assay addresses beta-2 microglobulin (Homo sapiens (Human), UniProt P61769 21-119). In words: routine laboratory ELISA. On the technique in general: An ELISA detects its analyte on a solid surface through an enzyme-linked reagent.
The target of assay [2] is T1, Spike protein of authentic SARS-CoV-2 (Munich isolate 984) (SARS-CoV-2, UniProt P0DTC2 14-1273). In words: cell-based or functional assay. The arrangement: IC90 Neutralizing Assay: unit not given beside the values.
The target of assay [3] is T1, Spike protein of authentic SARS-CoV-2 …. Kind of assay: cell-based or functional assay.
Assay [4] concerns the target Fc fusion protein of the RBD-SD1 region of SARS-CoV (SARS-CoV, UniProt P59594 306-577). In words: ELISA on captured RBD-SD1-Fc.
Assay [5] has as its target T2, Fc fusion protein of the RBD-SD1 region of MERS-CoV (MERS-CoV, UniProt K9N5Q8 367-655).
T2 sequence: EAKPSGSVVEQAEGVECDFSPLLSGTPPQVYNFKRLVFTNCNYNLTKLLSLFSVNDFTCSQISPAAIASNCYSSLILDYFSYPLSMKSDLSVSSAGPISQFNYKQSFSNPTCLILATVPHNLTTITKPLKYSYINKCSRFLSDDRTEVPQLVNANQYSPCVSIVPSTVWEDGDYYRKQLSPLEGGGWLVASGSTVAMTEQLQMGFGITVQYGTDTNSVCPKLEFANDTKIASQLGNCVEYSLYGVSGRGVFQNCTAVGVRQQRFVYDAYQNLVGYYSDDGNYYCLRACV
In words: ELISA on captured RBD-SD1-Fc.

Assay [6] deals with T3, Fc fusion protein of the RBD-SD1 region of HCoV-HKU1 (HCoV-HKU1, UniProt Q5MQD0 310-677).
T3 construct: domain: RBD-SD1 region
T3 sequence: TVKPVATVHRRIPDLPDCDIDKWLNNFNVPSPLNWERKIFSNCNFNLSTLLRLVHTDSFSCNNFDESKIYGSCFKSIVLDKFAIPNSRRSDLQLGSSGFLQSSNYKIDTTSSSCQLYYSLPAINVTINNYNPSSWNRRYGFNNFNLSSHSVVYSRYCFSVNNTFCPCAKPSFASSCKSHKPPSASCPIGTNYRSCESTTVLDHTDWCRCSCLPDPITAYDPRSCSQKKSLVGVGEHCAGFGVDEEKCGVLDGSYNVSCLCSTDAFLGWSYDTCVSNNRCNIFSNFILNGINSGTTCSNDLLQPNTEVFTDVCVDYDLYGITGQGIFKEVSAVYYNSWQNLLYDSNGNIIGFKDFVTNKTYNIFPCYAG
Kind of assay: ELISA on captured RBD-SD1-Fc.

Assay [7] addresses T4, Fc fusion protein of the RBD-SD1 region of HCoV-OC43 (HCoV-OC43, UniProt P36334 318-675).
T4 construct: domain: RBD-SD1 region
T4 sequence: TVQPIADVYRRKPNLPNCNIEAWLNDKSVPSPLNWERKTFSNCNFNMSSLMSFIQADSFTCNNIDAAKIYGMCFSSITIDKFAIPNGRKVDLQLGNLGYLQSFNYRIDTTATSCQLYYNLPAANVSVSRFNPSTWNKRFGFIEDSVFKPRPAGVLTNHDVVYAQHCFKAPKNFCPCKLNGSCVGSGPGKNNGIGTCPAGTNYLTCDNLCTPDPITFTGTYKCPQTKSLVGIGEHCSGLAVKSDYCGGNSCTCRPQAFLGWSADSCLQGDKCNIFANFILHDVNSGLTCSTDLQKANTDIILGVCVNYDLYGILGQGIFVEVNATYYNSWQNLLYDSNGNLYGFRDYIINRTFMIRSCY
Kind of assay: ELISA on captured RBD-SD1-Fc.

Chain of beta-2 microglobulin (P61769 21-119 limits assumed): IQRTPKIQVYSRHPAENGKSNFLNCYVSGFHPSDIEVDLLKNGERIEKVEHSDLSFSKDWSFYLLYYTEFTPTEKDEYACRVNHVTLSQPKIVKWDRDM

B1: HK CV07-209 (antibody, V domains shown)
VH: QVQLVESGGGLVKPGGSLRLSCAASGFTFSDYYMSWIRQAPGKGLEWVSYISSSVSTIYYADSVKGRFTISRDNAKNSLYLQMNSLRAEDTAVYYCARDGVIPPRFDYWGQGTLVTVSS
VL: not shown
By Kd is commonly meant the free concentration of one partner at which half of the binding sites on the other are occupied at equilibrium, for simple one-to-one binding. B1 returned a Kd in assay [1] of 6 pM. Moreover, the binding result was “no binding (tested: 50 µg/ml)” with beta-2 microglobulin; “no binding (tested: 1 µg/ml)” in assay [4]; “no binding (tested: 1 µg/ml)” in assay [5]; “no binding (tested: 1 µg/ml)” in assay [6]; “no binding (tested: 1 µg/ml)” in assay [7]. Further, in assay [2], the “IC50 Neutralizing Assay” value is less than 0.05 µg/mL. Also, the “IC50 (PRNT, authentic SARS-CoV-2)” value in assay [3] is 0.0031 µg/mL.

B2: HL CV07-222 (antibody, V domains shown)
VH: QVQLVQSGAEVKKPGASVKVSCKASGYTFTDYYVHWVRQAPGQGLEWMGWINPISGGTNYAQKFQGRVTMTRDTSISTAYMELSRLRSDDTAVYYCARGPYYYDSSGSLGAFDIWGQGTMVTVSS
VL: QSALTQPASVSGSPGQSITISCTGTSSDVGSYNLVSWYQQHPGKAPKLMIYEGSKRPSGVSNRFSGSKSGNTASLTISGLQAEDEAHYYCCSYAGGSTSYVFGTGTKVTVLG
B2 gave a Kd in assay [1] of 6.97 pM. The binding result is on record as “no binding (tested: 50 µg/ml)” in the assay with beta-2 microglobulin; “no binding (tested: 1 µg/ml)” in assay [4]; “no binding (tested: 1 µg/ml)” in assay [5]; “no binding (tested: 1 µg/ml)” in assay [6]; “no binding (tested: 1 µg/ml)” in assay [7]. The “IC50 Neutralizing Assay” value in assay [2] is less than 0.05 µg/mL. For the same molecule, the “IC50 (PRNT, authentic SARS-CoV-2)” value in assay [3] was determined as 0.0078 µg/mL.

B3: HL CV07-262 (antibody, V domains shown)
VH: QVQLVQSGAEVKKPGASVKVSCKASGYTFTGYYMHWVRQAPGQGLEWMGWINPNSGGTNYAQTFQGRVTMTRDTSITTTYMELSRLRSDDTAVYYCARVGWYDFGTPGDYYYYYGMDVWGQGTTVTVSS
VL: QSALTQPASVSGSPGQSITISCTGTSSDVGSYNLVSWYQQHPGKAPKLMIYEGSKRPSGVSNRFSGSKSGNTASLTISGLQAEDEADYFCCSYAGTSTFVFGTGTKVTVLG
For B3, the Kd in assay [1] is 79 pM. For the same molecule, the binding result was “no binding (tested: 50 µg/ml)” with beta-2 microglobulin; “no binding (tested: 1 µg/ml)” in assay [4]; “no binding (tested: 1 µg/ml)” in assay [5]; “no binding (tested: 1 µg/ml)” in assay [6]; “no binding (tested: 1 µg/ml)” in assay [7]. In assay [2], the “IC50 Neutralizing Assay” value was less than 0.05 µg/mL. Also, the “IC90 Neutralizing Assay” value in assay [2] is approximately 500. Besides, in assay [3], the “IC50 (PRNT, authentic SARS-CoV-2)” value worked out at 0.0071 µg/mL.

B4: HL CV07-267 (antibody, V domains shown)
VH: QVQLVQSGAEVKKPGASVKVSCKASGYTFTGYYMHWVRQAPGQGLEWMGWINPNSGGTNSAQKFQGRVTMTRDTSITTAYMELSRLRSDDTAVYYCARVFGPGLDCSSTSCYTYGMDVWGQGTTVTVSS
VL: B3 VL with G53V, F89Y, T96S, T98S, F99W, T103G, V107L
As to B4, the “IC50 Neutralizing Assay” value in assay [2] is approximately 500.

B5: HL CV07-255 (antibody, V domains shown)
VH: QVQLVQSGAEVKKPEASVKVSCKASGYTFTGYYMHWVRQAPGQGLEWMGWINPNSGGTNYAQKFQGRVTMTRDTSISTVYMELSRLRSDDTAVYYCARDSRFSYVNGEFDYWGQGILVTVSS
VL: B3 VL with G24R, G30E, G53V, V60I, F89Y, T96H, F99W, T103G, K106E, V107L
Regarding B5, the binding result is on record as “no binding (tested: 50 µg/ml)” with beta-2 microglobulin; “no binding (tested: 1 µg/ml)” in assay [4]; “no binding (tested: 1 µg/ml)” in assay [5]; “no binding (tested: 1 µg/ml)” in assay [6]; “no binding (tested: 1 µg/ml)” in assay [7]. The “IC50 Neutralizing Assay” value in assay [2] is approximately 0.05 µg/mL. Also, the “IC50 (PRNT, authentic SARS-CoV-2)” value in assay [3] is 0.0145 µg/mL.

B6: HL CV07-270 (antibody, V domains shown)
VH: QVQLVESGGGLVKPGGSLRLSCAASGFTFSDYYMTWIRQAPGKGLEWVSYISSSGSTIYYADSVKGRFTISRDNAKNSLYLQMNSLRAEDTAVYYCARARGSSGWYRIGTRWGNWFDPWGQGTLVTVSS
VL: QSALTQPASVSGSPGQSITISCTGTSSDVGGYNYVSWYQQHPGKAPKLMIYEVSNRPSGVSNRFSGSKSGNTASLTISGLQAEDEADYYCSSYTSSSNVVFGGGTMLTVLG
Take B6: the binding result with beta-2 microglobulin is reported as “no binding (tested: 50 µg/ml)”; in assay [4], “no binding (tested: 1 µg/ml)”; in assay [5], “no binding (tested: 1 µg/ml)”; in assay [6] it was “no binding (tested: 1 µg/ml)”; in assay [7], “no binding (tested: 1 µg/ml)”. For the same molecule, the “IC90 Neutralizing Assay” value in assay [2] is approximately 500. In addition, in assay [3], the “IC50 (PRNT, authentic SARS-CoV-2)” value was found to be 0.0823 µg/mL.

B7: HK CVX2-106 (antibody, V domains shown)
VH: QVQLVQSGAEVKKPGSSVKVSCKASGGTFSSYAISWVRQAPGQGLEWMGGIIPIFGTANYAQKFQGRVTITADESTSTAYMELSSLRSEDTAVYYCATRKETTVTTSLVYGMDVWGQGTTVTVSS
VL: not shown
B7: the binding result with beta-2 microglobulin is listed as “no binding (tested: 50 µg/ml)”; in assay [4] it was “no binding (tested: 1 µg/ml)”; in assay [5], “no binding (tested: 1 µg/ml)”; in assay [6] it was “no binding (tested: 1 µg/ml)”; in assay [7], “no binding (tested: 1 µg/ml)”. Further, in assay [2], the “IC50 Neutralizing Assay” value is approximately 0.5 µg/mL. The “IC50 (PRNT, authentic SARS-CoV-2)” value in assay [3] came out at 0.0176 µg/mL.

B8: HK CV38-139 (antibody, V domains shown)
VH: EVQLVESGGGLVQPGGSLRLSCAASGFTVSSNYMSWVRQAPGKGLEWVSVFYSGGSTFYADSVKGRFTISRDNSKNTLYLQMNSLRAEDTAVYYCARGHYDLFDYWGQGTLVTVSS
VL: DIQLTQSPSFLSASVGDRVTITCRASQGISSYLAWYQQKPGKAPKLLIYAASTLQSGVPSRFSGSGSGTEFTLTISSLQPEDFATYYCQQLNSYPPGTFGPGTKVDIKR
Turning to B8, in assay [1], the Kd was 277 pM. Also, the binding result in the assay with beta-2 microglobulin is given as “no binding (tested: 50 µg/ml)”; in assay [4], “no binding (tested: 1 µg/ml)”; in assay [5], “no binding (tested: 1 µg/ml)”; in assay [6], “no binding (tested: 1 µg/ml)”; in assay [7] it was “no binding (tested: 1 µg/ml)”. Also, the “IC50 (PRNT, authentic SARS-CoV-2)” value in assay [3] is 0.0732 µg/mL.

B9: HK CVX1-126 (antibody, V domains shown)
VH: EVQLVESGGGLVQPGGSLRLSCAASGLTVSSNYMSWVRQAPGKGLEWVSVIYSGGSTYYADSVKGRFTISRHNSKNTLYLQMNSVRAEDTAVYYCARDLSEGGMDVWGQGTTVTVSS
VL: DIQMTQSPSSVSASVGDRVTITCRASQGISSWLAWYQQKPGKAPKLLIYAASTLQSGVPSRFSGSGSGTDFTLTISSLQPEDFATYYCQQANGFPPLFGGGTKVEIKR
In the case of B9, binding in assay [1] was characterised by a dissociation constant (Kd) of 243 pM. In addition, the binding result was “no binding (tested: 50 µg/ml)” in the assay with beta-2 microglobulin; “no binding (tested: 1 µg/ml)” in assay [4]; “no binding (tested: 1 µg/ml)” in assay [5]; “no binding (tested: 1 µg/ml)” in assay [6]; “no binding (tested: 1 µg/ml)” in assay [7]. In addition, the “IC50 (PRNT, authentic SARS-CoV-2)” value in assay [3] was 0.0717 µg/mL.

B10: HK CV38-221 (antibody, V domains shown)
VH: EVQLVESGGGLVQPGGSLRLSCAASGITVSSNYMIWVRQAPGKGLEWVSVIYSGGSTYYADSVKGRFTISRDNSKNTLYLQMNSLRAEDTAVYYCARGFGDYYFDYWGQGTLVTVSS
VL: EIVLTQSPGTLSLSPGERATLSCRASQSVSSSYFAWYQQKPGQAPRLLIYGASSRATGIPDRFSGSGSGTDFTLTISRLEPEDFAVYYCQQLYTFGQGTKLEIKR
In assay [1], B10 returned a Kd of 499 pM. Besides, the binding result was “no binding (tested: 50 µg/ml)” with beta-2 microglobulin; “no binding (tested: 1 µg/ml)” in assay [4]; “no binding (tested: 1 µg/ml)” in assay [5]; “no binding (tested: 1 µg/ml)” in assay [6]; “no binding (tested: 1 µg/ml)” in assay [7]. Further, the “IC50 (PRNT, authentic SARS-CoV-2)” value in assay [3] was found to be 0.173 µg/mL.
